Laboratory results: US20250250357A1 (NANJING ZAIMING PHARMACEUTICAL, published 2025)

T1: human MSLN-R1-his protein (human, UniProt Q13421 296-390)
T1 construct: Made in HEK293E cells, purified on nickel column; also called hMSLN-R1-his; human MSLN-R1 protein; not shown: His tag
T1 chain: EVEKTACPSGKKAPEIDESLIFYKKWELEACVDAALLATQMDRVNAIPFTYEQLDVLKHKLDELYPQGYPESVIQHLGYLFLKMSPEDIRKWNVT

T2: monkey MSLN on HEK293T-monkey MSLN recombinant cells (monkey)
T2 construct: Full-length precursor as transfected; processing on the cell is not described; also called HEK293-monkey MSLN
T2 chain: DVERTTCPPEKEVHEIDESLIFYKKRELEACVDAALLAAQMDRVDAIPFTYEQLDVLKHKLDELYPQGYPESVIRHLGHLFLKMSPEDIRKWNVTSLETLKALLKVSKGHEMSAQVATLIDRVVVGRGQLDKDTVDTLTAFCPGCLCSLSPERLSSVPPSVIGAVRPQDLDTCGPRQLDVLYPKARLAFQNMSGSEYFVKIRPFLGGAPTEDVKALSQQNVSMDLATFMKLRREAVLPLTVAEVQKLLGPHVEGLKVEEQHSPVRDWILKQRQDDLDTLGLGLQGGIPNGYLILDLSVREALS


Experiments:
[1] = biological target: T3, human MSLN-FL-his protein (human, UniProt Q13421 296-580); experiment: ELISA, coated antigen, antibody 2 nM
T3 construct: Made in HEK293E cells, purified on nickel column; also called hMSLN-FL-his; human MSLN full-length protein; not shown: His tag
Target sequence in this assay (Q13421 other isoform, or with tags, fused parts or gaps): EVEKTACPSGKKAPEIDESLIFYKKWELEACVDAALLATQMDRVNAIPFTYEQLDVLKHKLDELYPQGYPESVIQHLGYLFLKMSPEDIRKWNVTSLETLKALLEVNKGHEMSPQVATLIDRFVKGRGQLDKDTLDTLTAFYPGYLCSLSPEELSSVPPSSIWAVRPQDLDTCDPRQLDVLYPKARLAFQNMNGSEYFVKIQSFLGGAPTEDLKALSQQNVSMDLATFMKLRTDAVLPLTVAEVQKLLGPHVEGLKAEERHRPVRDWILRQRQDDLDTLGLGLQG

[2] = biological target: T1, human MSLN-R1-his protein; experiment: ELISA, coated antigen, antibody 2 nM
[3] = biological target: T3, human MSLN-FL-his protein; experiment: ELISA, coated antigen, antibody 20 nM
[4] = biological target: T1, human MSLN-R1-his protein; experiment: ELISA, coated antigen, antibody 20 nM
[5] = biological target: T3, human MSLN-FL-his protein; experiment: ELISA, coated antigen, antibody 0.2 nM
[6] = biological target: T3, human MSLN-FL-his protein; experiment: ELISA, coated antigen, antibody 200 nM
[7] = biological target: T1, human MSLN-R1-his protein; experiment: ELISA, coated antigen, antibody 0.2 nM
[8] = biological target: T1, human MSLN-R1-his protein; experiment: ELISA, coated antigen, antibody 200 nM
[9] = biological target: T3, human MSLN-FL-his protein; experiment: ELISA, coated antigen, antibody 0.02 nM
[10] = biological target: T1, human MSLN-R1-his protein; experiment: ELISA, coated antigen, antibody 0.02 nM
[11] = biological target: T3, human MSLN-FL-his protein; experiment: ELISA, coated antigen, antibody 0.002 nM
[12] = biological target: T1, human MSLN-R1-his protein; experiment: ELISA, coated antigen, antibody 0.002 nM
[13] = biological target: T3, human MSLN-FL-his protein; experiment: ELISA, coated antigen, antibody 0.0002 nM
[14] = biological target: T1, human MSLN-R1-his protein; experiment: ELISA, coated antigen, antibody 0.0002 nM
[15] = biological target: T3, human MSLN-FL-his protein; experiment: ELISA, coated antigen, no antibody (blank)
[16] = biological target: T1, human MSLN-R1-his protein; experiment: ELISA, coated antigen, no antibody (blank)
[17] = biological target: T4, human MSLN-R3 on HEK293T-hMSLN-R3 recombinant cells (human, UniProt Q13421 487-606); experiment: FACS, HEK293T-hMSLN-R3 cells
T4 construct: the C-terminal limit is uncertain; also called human MSLN-R3 membrane protein

[18] = biological target: T2, monkey MSLN on HEK293T-monkey MSLN …; experiment: FACS, HEK293T-monkey MSLN cells
[19] = biological target: T5, human MSLN-hFc recombinant protein (human, UniProt Q13421 296-580); experiment: SPR (Biacore 8K), MSLN-hFc captured, antibody injected
T5 construct: Captured by an anti-human IgG antibody on the chip; also called human MSLN protein; Acro MSN-H5253
T5 sequence (Q13421 other isoform, or with tags, fused parts or gaps): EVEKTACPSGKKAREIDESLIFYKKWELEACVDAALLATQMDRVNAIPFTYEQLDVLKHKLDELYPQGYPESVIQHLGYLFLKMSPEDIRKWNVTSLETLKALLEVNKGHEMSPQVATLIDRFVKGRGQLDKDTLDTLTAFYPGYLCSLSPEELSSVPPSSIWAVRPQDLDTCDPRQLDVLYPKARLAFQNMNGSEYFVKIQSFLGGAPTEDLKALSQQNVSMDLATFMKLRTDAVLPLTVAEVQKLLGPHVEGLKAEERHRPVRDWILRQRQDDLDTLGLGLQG

T4 sequence (Q13421 495-614): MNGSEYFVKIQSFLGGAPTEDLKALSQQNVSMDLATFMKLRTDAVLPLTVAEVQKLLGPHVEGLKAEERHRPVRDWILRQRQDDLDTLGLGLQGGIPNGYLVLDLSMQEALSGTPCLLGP

OD450 [1]	OD450 [2]	OD450 [3]	OD450 [4]	OD450 [5]	OD450 [6]	OD450 [7]	OD450 [8]	OD450 [9]	OD450 [10]	OD450 [11]	OD450 [12]	OD450 [13]	OD450 [14]	OD450 [15]	OD450 [16]	Binder	further results
2.34	0.05	2.49	0.06	2.4	2.75	0.05	0.08	1.78	0.05	0.84	0.05	0.22	0.05	0.08	0.07	S009-F7.6.17 chimeric antibody (antibody, human IgG1, kappa, V domains shown, Human-murine chimeric antibody, human IgG1/kappa constant regions) VH: QVQLQQSGAELARPGASVKMSCKASGYTFTTYTMHWVKQRPGQGLEWIGYISPTGDFTKYNQKFKDKATLTTDKSSNTAFMQLSSLTSEDSAVYYCARWNGTVWFAYWGQGTLVTVSA VL: DIVMTQSQKFMSTSVGDRVTVTCKASQALGTNVAWYQQKPGQSPKVLIYSASYRYSGVPYRFAGGGSGTDFTLTITNVQSEDLAEYFCQQYNNYPLTFGAGTKLELKR	–
2.28	2.45	2.29	2.45	2.33	2.4	2.46	2.77	1.91	2.05	0.97	1.17	0.31	0.38	0.07	0.08	S009-F7.18.10 chimeric antibody (antibody, human IgG1, kappa, V domains shown, Human-murine chimeric antibody, human IgG1/kappa constant regions) VH: QVQLQQSGAELVRPGTSVKVSCKASGYAFTNYLIEWVKQRPGQGLEWIGVINPGSGGTKYNEKFKGKATLTADKSSSTAYMQLSSLTSEDSAVYFCASDYDYDPFAYWGQGTLVTVSA VL: DIVMTQSHKFMSTSVGDRVSITCKASQDVSTAVAWYQRKPGQSPKLLIYWASTRHTGVPDRFTGSGSGTDYTLTISYMQAEDLALYYCQQHYSTPYTFGGGTKLEIKR	–
2.13	0.05	2.35	0.06	1.54	2.62	0.05	0.06	0.41	0.05	0.16	0.05	0.08	0.05	0.08	0.07	S009-F7.11.11 chimeric antibody (antibody, human IgG1, kappa, V domains shown, Human-murine chimeric antibody, human IgG1/kappa constant regions) VH: EVQLQQSGPELVKPGASVKIPCKASGYTITDYNMDWVKQSRGKSLEWIGDVFPYNGDSIYNQKFEGRATLTVDKYSSTAYMELRGLTSEDTAVYFCARRKTGTGYFDVWGTGTTVTVSS VL: QLVLTQSPAIMSASPGEKVTLTCSASSSVSSTYLSWYLQKPGSSPKLWIYSTSNLASGVPARFSGSGSGTSYSLTISSMEAEDAASYFCHQWSSYPYTFGGGTKLEIKR	–
2.21	0.05	2.19	0.06	2.14	2.65	0.05	0.06	1.44	0.05	0.6	0.05	0.15	0.05	0.06	0.06	S009-F7.12.13 chimeric antibody (antibody, human IgG1, kappa, V domains shown, Human-murine chimeric antibody, human IgG1/kappa constant regions) VH: EVQLQQSGPELVKPGASVKIPCKASGYTFTDYNMDWVKQSHGKGLEWIGDINPNTDDTIYNQKFNGKATLTVDKSSSTAYMELRSLTSEDTAVYYCSRRLIGTGYFDVWGTGTTVTVSS VL: QIVLTQSPAIMSASPGEKVTLTCSASSSVISTYLCWYRQKPGSSPELWIYSTSNLASGVPARFSGSGSGTSYSLTISSMEAEDAASYFCHQWSNYPYTFGGGTKLGMKR	–
2.31	0.05	2.46	0.06	2.15	2.42	0.05	0.17	1.39	0.05	0.82	0.05	0.35	0.04	0.08	0.07	S009-F7.21.16 chimeric antibody (antibody, human IgG1, kappa, V domains shown, Human-murine chimeric antibody, human IgG1/kappa constant regions) VH: QVQLQQPGTELVKPGASVKLSCKASGYTFTTFWMHWVKQRPGQGLEWIGGVNPTNGGTNYNEKFRTKATLTVDKSSTTADMQLSSLTSEDSAVYYCAPHYISSRPGFAYWGQGTLVTVSG VL: DIVMTQSQKFMSTSGGDRVSVTCKASQNVGTNVAWYQQKPGQSPKALIYSASYRYSGVPDRFTGSGSGTDFILTISNVQSEDLAEYFCQQYNSYPLTFGGGTKLEIKR	–
–	–	–	–	–	–	–	–	–	–	–	–	–	–	–	–	F3.80.22-H5 (scFv, not shown: small tags and cut ends, also called S009-F3.80.22 humanized antibody VL1a + VH1) scFv: DIVMTQTPLSLPVTPGEPASISCRSSQSLEHNDGNTYLHWFLQKPGQSPQLLIYKVSNRFSGVPDRFSGSGSGTDFTLKISRVEAEDVGVYYCSQSTHVPFTFGQGTKLEIKGGGGSGGGGSGGGGSEVQLVQSGAEVKKPGATVKISCKVSGYTFTDYEIHWVQQAPGKGLEWMGAFDPEIGGSAYNQKFKDRVTITADKSTDTAYMELSSLRSEDTAVYYCTDYYGSSSGYFDVWGQGTTVTVSS	EC50 [17]: 5.29 nM; Maximum_MFI [17]: 1370 MFI; Maximum_MFI [18]: 302 MFI; binding result [18]: no binding; Kd [19]: 159 nM; koff [19]: 0.000565 s⁻¹; kon [19]: 3560 M⁻¹ s⁻¹
–	–	–	–	–	–	–	–	–	–	–	–	–	–	–	–	F3.80.22-H10 (scFv, not shown: small tags and cut ends, also called S009-F3.80.22 humanized antibody VL2 + VH2) scFv: DIVMTQTPLSLPVTPGEPASISCRSSQSLEHNNGNTYLHWFLHKPGQSPQLLIYKVSNRFSGVPDRFSGSGSGTDFTLKISRVEAEDVGVYYCSQSTHVPFTFGQGTKLEIKGGGGSGGGGSGGGGSEVQLVQSGAEVKKPGATVKISCKASGYTFTDYEIHWVQQAPGKGLEWMGAFDPEIGGSAYNQKFKDRVTITADKSTSTAYMELSSLRSEDTAVYYCTDYYGSSSGYFDVWGQGTTVTVSS	EC50 [17]: 1.99 nM; Maximum_MFI [17]: 1800 MFI; Maximum_MFI [18]: 381 MFI; binding result [18]: no binding; Kd [19]: 20.9 nM; koff [19]: 0.000177 s⁻¹; kon [19]: 8470 M⁻¹ s⁻¹
2.5	0.08	2.5	0.08	2.3	2.91	0.06	0.1	1.28	0.06	0.41	0.06	0.15	0.06	0.06	0.07	S009-F7.2.3 chimeric antibody (antibody, human IgG1, kappa, V domains shown, Human-murine chimeric antibody, human IgG1/kappa constant regions) VH: ELQLVESGGDLVKPGGSLKLSCAASGFTFSSNGMSWLRQTPDKRLEWVATISSGGRYTYYPDSVKGRFTISRDNAKNTLYLQMSSLKSEDTAMYYCARRGIYDYFDCWGQGTTLTVSS VL: DIQMTQSPASLSISVGETVTITCRASENIHSSLAWYQQKQGKSPQLLVYAATNLADGVPSRFSGSGSGSQYSLKINSLQSEDFGTYYCQHFWGTPWTFGGGTKLDIKR	–
